In article PMC9951844 (2023):

Columns and labels:
SARS-CoV-2 wildtype RBD [1] = target: T1, SARS-CoV-2 wildtype RBD (SARS-CoV-2, UniProt P0DTC2 332-527); assay: BLI
SARS-CoV-2 wildtype RBD [2] = target: T1, SARS-CoV-2 wildtype RBD; assay: BLI; remark: listed apart in the source

B1: YB9-258 IgG (antibody, V domains shown)
VH: EVQLVESGGGLIQPGGSLRLSCAASGLTVSSNYMHWVRQAPGKGLEWVSVLYAGGSAFYADSVKGRFTISRNNSKNTLYLQMNSLRAEDTAIYYCARGLGDYLDSWGQGTLVTVSS
VL: DIQMTQSPSSVSASVGDRVTITCRASQGIGSWLAWYQQKPGKAPQLLIYAASTLQSGVPPRFSGSGSGTDFTLTITSLQPEDFASYYCQQANSVLALTFGGGTKVEIK
B1 was tested. Which Kd (SARS-CoV-2 wildtype RBD [1]) did it give?
Its Kd is 0.63 nM.

And the koff (SARS-CoV-2 wildtype RBD [2])?
The koff was 7.7e-05 s⁻¹.

B2: YB13-292 IgG (antibody, V domains shown)
VH: EVQLVESGGGLVKPGGSLRLSCAASGFSFITYNMNWVRQAPGKGLEWVSSISSNILSSTSYIYYADSVKGRFTISRDDAANSLFLQMNSLRVEDTAQYYCARTRSRSVRNCTSATCPVDAFDLWGQGTMVIVSS
VL: DIVLTQSPLSLPVTPGEPASISCRSSQSLLRSNGYNYLDWYLQKPGQSPHLLIYLGSNRASGVPDRFSGSGSGTDFTLKISRVEAEDVGVYYCMQALQTPYTFGQGTNLEIK
How did the Kd (SARS-CoV-2 wildtype RBD [1]) turn out when B2 was run?
Its Kd is 0.39 nM.

And the koff (SARS-CoV-2 wildtype RBD [2])?
The koff was 0.000197 s⁻¹.
